Experiment [1] has as its target recombinant human Siglec-10 protein (Siglec-10 antigen coated in ELISA) (Homo sapiens (Human)., UniProt Q96LC7).
For experiment [2], the target named is Siglec-5 antigen (recombinant Siglec-5 protein coated in ELISA) (Homo sapiens (assumed), UniProt O15389). Nature of the experiment: ELISA.
Sequence of Siglec-5 antigen (recombinant Siglec-5 protein coated in ELISA) (O15389 17-551): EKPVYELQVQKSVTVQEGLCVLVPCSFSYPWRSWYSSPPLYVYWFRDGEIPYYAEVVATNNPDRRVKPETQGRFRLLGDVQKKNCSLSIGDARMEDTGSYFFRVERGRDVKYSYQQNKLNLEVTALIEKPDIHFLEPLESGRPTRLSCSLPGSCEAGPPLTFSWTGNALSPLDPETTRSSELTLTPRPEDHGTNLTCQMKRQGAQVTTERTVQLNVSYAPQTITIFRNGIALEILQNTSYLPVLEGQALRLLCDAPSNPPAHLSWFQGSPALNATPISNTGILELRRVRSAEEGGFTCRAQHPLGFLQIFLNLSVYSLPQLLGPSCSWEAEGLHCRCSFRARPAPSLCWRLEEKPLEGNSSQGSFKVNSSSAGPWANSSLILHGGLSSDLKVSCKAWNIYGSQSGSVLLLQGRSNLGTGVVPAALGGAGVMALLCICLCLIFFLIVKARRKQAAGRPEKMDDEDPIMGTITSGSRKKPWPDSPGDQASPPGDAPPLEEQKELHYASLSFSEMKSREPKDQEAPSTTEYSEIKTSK

Sequence of recombinant human Siglec-10 protein (Siglec-10 antigen coated in ELISA) (Q96LC7 17-550): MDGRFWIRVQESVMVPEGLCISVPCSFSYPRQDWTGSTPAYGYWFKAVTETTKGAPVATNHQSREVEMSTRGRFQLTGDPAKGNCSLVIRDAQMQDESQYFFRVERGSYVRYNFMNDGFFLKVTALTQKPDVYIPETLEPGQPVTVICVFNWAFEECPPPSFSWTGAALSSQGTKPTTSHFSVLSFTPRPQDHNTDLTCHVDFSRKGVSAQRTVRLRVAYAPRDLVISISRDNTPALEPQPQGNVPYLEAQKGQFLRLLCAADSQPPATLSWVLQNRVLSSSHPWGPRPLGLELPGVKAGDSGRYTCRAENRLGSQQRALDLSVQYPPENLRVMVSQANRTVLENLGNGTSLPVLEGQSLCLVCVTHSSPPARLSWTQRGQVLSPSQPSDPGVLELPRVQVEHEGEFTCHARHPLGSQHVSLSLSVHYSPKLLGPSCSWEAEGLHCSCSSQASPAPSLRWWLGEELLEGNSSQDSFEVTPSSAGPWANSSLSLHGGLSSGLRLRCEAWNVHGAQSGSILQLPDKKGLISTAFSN

B1: 38B2G5 (antibody, V domains shown)
VH: QVQLQQSGAEVAKPGASVKLSCKASGYTFTSYWMHWVKQRPGQGLEWIGYINPSNNYTKYNQKFNDKATLTADKSSSTAYMQLSSLTYEDSALYYCARVYYYGNSPAWFAYWGQGTLVTVSA
VL: QIVLSQSPAILSASPGEKVTMTCRASSSVSYMHWYQQKPGSSPKPWIYATSNLASGVPARFSGSGSGTSYSLTISRVEAEDAATYYCQQWTSNPPTFGGGTKLEIK
B1: the binding result in experiment [1] is “binds”.

B2: 22F1A9 (antibody, V domains shown)
VH: EVQLVESGGGLVKPGGSLKLSCAASGFTFSSYAMSWVRQTPEKRLEWVATISDGGSYTYYPDNVKGRFTISRDNTKNNLYLQMSHLKSEDTAMFYCARDLSPLYYRGPMDYWGQGTSVTVSS
VL: DIQMTQSPASLSASLGERVSLTCRASQDIGSSLNWLQQEPDGTIKRLIYATSSLDSGVPKRFSGSRSGSDYSLTISSLESEDFVDYYCLQYASSPFTFGSGTKLEIK
For B2, the binding result in experiment [1] was “binds”.

B3: 31E6H8 (antibody, V domains shown)
VH: EVKLVESGGGLVQPGGSLSLSCAASGFTFTDYYMTWVRQPPGKALEWLGFIRNKANGYTTEYSASVKGRFTISRDNSQSILSLQMNALSAEDSATYYCASLVLRGFAYWGQGTLVTVSA
VL: not shown
For B3, in experiment [1], the binding result was “binds”.

B4: 36F7B3 (antibody, V domains shown)
VH: EVKLVESGGGLVQPGGSLSLSCAASGFTFTDYYMTWVRQPPGKALEWLCFIRNKANGYTTEYSASVKGRFTISRDNSQSILYLQVNALRAEDSATYYCATYVLRGLAYWGQGTLVTVSA
VL: not shown
For B4, in experiment [1], the binding result is “binds”.

B5: 66E8F8 (antibody, V domains shown)
VH: EVKLVESGGGLVQPGGSLSLSCAASGFTFTDYYMSWVRQPPGKALEWLCFIRNKANGYTTEYSASVKGRFTISRDNSQSILYLQVNALRAEDSATYYCATYVLRGLAYWGQGTLVTVSA
VL: not shown
With B5, in experiment [1], the binding result is “binds”.

B6: 56C3E6 (antibody, V domains shown)
VH: EVNLVESGGGLVQPGDSLSLSCATSGFTFTDYYMSWVRQPPGKALEWLGFIRNKANGYTTEYSASVKGRFTISRDNSQSILYLQMNALRPEDSATYYCASPVLRGFAYWGRGTLVTVSA
VL: DIQMTQSPASLSASVGETVTITCRASGNIHNYLAWYQQKQGKSPQLLVYNAKTLADGVPSRFSGSGSGTQYSLKINSLQPEDFGSYYCQHFWSTPFTFGSGTKLEIK
Regarding B6, the binding result in experiment [1] is “binds”.

B7: 35G6G1 (antibody, V domains shown)
VH: EVKLVESGGGLVQPGGSLSLSCAASGFTFADYYMTWVRQPPGKALEWLGFIRNKANGFTTEYSASVKGRFTISRDNSQSILYLQMNALRAEDSATYYCARYGLRGFAYWGQGTLVTVSA
VL: DIVMTQSPSSLAMSVGQKVTLNCKSSQSLLNSSNQKNYLAWYQQKPGQSPKLLVYFASTRESGVPDRFIGSGSGTDFTLTISSVQAEDLADYFCHQHYSTPFTFGSGTKLEMK
B7: the binding result in experiment [1] is on record as “binds”.

B8: 35B3F9 (antibody, V domains shown)
VH: EVKLVESGGGLVQPGGSLRLSCAASGFTFTDYYMSWVRQPPGKALEWLGFIRNKVSGYTTDNSASVKGRFTISRDDSQSIVYLQMNDLRAEDSATYYCARYVSLWLLGYFDVWGTGTTVTVSS
VL: DVQITQSPSYLAASPGETITINCRASKSISKYLAWYQEKPGKTNKLLIYSGSTLQSGIPSRFSGSGSGTDFTLTISSLEPEDFAMYYCQQHNEYPLTFGTGTKLELK
Turning to B8, the binding result in experiment [1] is “binds”.

B9: recombinant 68A11A1 antibody (IgG1 isotype), anti-Siglec-10 monoclonal antibody (antibody, V domains shown)
VH: EVKLVESGGGLVQPGGSLSLSCAASGFTFTDYYMSWVRQPPGKALEWLGFIRNKVSGYTTDYSSSVKGRFTFSRDNSQSIVYLHMNALRAEDSATYYCTRYVSLWLLGYFDVWGTGTTVTVSS
VL: DVQLTQSPSYLAASPGETITINCRTSKSISKYLAWYQEKPGKTNKLLIYSGSTLQSGIPSRFSGSGSGTDFTLTISSLEPEDFAMYYCQQHNEYPLTFGAGTKLELK
For B9, in experiment [2], the binding result is recorded as “no binding”.

B10: 73D4G2 (antibody, V domains shown)
VH: EVRLVESGGGLVQPGGSLRLSCAASGFTFTDYYMSWVRQPPGKALEWLGFIRNKPSGYTTEYSASVKGRFTISRDNSQSILYLQMNALRAEDSATYYCARYISLWLLGYLDVWGTGTTVTVSS
VL: DVQITQSPSYLAASPGETIIINCRTSKSISKYLAWYQEKPGKTNKLLIYSGSTLQSGIPSRFSGSGSGTDFTLTISSLEPEDFAMYYCQQHNEYPLTFGAGTKLELK
As to B10, in experiment [1], the binding result is on record as “binds”.

B11: 68B1E2 (antibody, V domains shown)
VH: EVKLVESGGGLVQPGGSLSLSCAASGFTFTDYYMSWVRQPPGKALEWLGFIRNKASGYTTEYNASVKGRFTISRDNSQNILYLQMNALRAEDGATYYCVRYISLWLLGYFDVWGTGTTVTVSS
VL: DVQITQSPSYLAASPGETITINCRASKSISKYLAWYQEKPGKTNKLLIYSGSTLQSGIPSRFSGSGSGTDFTLTISSLEPEDFAMYYCQQHNDYPLTFGAGTKLELK
On to B11, for which the binding result in experiment [1] was “binds”.

B12: 38D6A8 (antibody, V domains shown)
VH: EVKLVESGGGLVQPGGSLSLSCAASGFTFTDYYMSWVRQPPGKALEWLGFIRNKASGYTTEYSASVKGRFTISRDNSQNILYLQMNALRAEDGATYYCVRYISLWLLGYFDVWGTGTTVTVSS
VL: DVQITQSPSYLAASPGETITINCRASKSISKYLAWYQEKPGKTNKLLIYSGSTLQSGIPSRFSGSGSGTDFTLTISSLEPEDFAMYYCQQHNDYPLTFGAGTKLELK
For B12, the binding result in experiment [1] is reported as “binds”.

B13: 54C2F11 (antibody, V domains shown)
VH: EVRLVESGGGLVQPGGSLRLSCAASGFTFTDYYMSWVRQPPGKALEWLGFIRNKPSGYTTEYSASVKGRFTISRDNSQSILYLQMNALRAEDSATYYCARYISLWLLGYLDVWGTGTTVTVSS
VL: DVQITQSPSYLAASPGETIIINCRTSKSISKYLAWYQEKPGKTNKLLIYSGSTLQSGIPSRFSGSGSGTDFTLTISSLEPEDFAMYYCQQHNEYPLTFGAGTKLELN
For B13, the binding result in experiment [1] is recorded as “binds”.

B14: 48D6F4 (antibody, V domains shown)
VH: EVRLVESGGGLVQPGGSLRLSCAASGFTFTDYYMSWVRQPPGKALEWLGFIRNKPSGYTTEYSASVKGRFTFSRDNSQSILYLQMNALRAEDSATYYCARYISLWLLGYLDVWGTGTTVTVSS
VL: DVQITQSPSYLAASPGETIIINCRTSKSISKYLAWYQEKPGKTNNLLIYSGSTLQSGIPSRFSGSGSGTDFSLTISSLEPEDFAIYYCQQHNEYPLTFGAGTKLELN
As to B14, the binding result in experiment [1] is “binds”.

Values taken from publication PMC12671567 (Cancer research, 2026).
